# Literature values in publication PMC9213791.
# Biological target: cardiac troponin C N-terminal domain (cNTnC) N-terminal domain (Homo sapiens) (UniProt P63316)
# Sequence (P63316 1-89): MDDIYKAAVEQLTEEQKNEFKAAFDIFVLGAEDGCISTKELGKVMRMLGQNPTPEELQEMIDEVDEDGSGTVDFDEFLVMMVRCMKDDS
substance,measurement,value
cardiac troponin I switch peptide switch peptide (from UniProt P19429),Kd,154 µM
